The record followed here is article PMC11018632, “The CB1 receptor interacts with cereblon and drives cereblon deficiency-associated memory shortfalls” (EMBO Molecular Medicine, 2024).

Assay [1] concerns the target T1, 6xHis-tagged human cereblon (hCRBN), recombinant (human, UniProt Q96SW2 1-442).
T1 construct: cereblon/CRBN, human; human CRBN cDNA inserted in the pBH4 vector; the introduction speaks of the 442 amino-acid protein; No tag cleavage is described; also called His6-tagged CRBN; unlabelled human CRBN
As to the kind of experiment: fluorescence polarisation; saturation binding; constant 100 nM 5-IAF-hCB1R-CTD and increasing amounts of hCRBN (~0-100 µM); fitted to a one-site equation for Kd. Particulars: both partners purified. In general terms: Fluorescence polarisation rises when a labelled molecule tumbles more slowly, as on binding a larger partner.

Assay [2] concerns the target T2, 5-IAF-labelled 6xHis-tagged human CB1R carboxy-terminal domain (hCB1R-CTD, amino acids 400-472) (human, UniProt P21554 400-472, labelled with 5-(iodoacetamido)fluorescein (5-IAF)).
T2 chain: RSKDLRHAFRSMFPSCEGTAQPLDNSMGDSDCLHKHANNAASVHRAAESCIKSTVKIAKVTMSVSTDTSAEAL
As to the kind of experiment: FP.

B1: 5-IAF-labelled 6xHis-tagged human CB1R carboxy-terminal domain (hCB1R-CTD, amino acids 400-472) (domain or fragment, UniProt P21554 400-472, looked up)
chain: RSKDLRHAFRSMFPSCEGTAQPLDNSMGDSDCLHKHANNAASVHRAAESCIKSTVKIAKVTMSVSTDTSAEAL
modifications: labelled with 5-(iodoacetamido)fluorescein (5-IAF)
notes: type-1 cannabinoid receptor (CB1R), human, carboxy-terminal domain, amino acids 400-472; The construct was made in earlier work (Costas-Insua et al, 2021); The results section gives aa 408-472 for the CTD of the earlier proteomic screen; also called 5-IAF-hCB1R-CTD; His6-tagged CB1R-CTD
As to B1, the binding result in assay [1] is recorded as “binds”.

B2: 6xHis-tagged human cereblon (hCRBN), recombinant (natural protein)
chain: MAGEGDQQDAAHNMGNHLPLLPAESEEEDEMEVEDQDSKEAKKPNIINFDTSLPTSHTYLGADMEEFHGRTLHDDDSCQVIPVLPQVMMILIPGQTLPLQLFHPQEVSMVRNLIQKDRTFAVLAYSNVQEREAQFGTTAEIYAYREEQDFGIEIVKVKAIGRQRFKVLELRTQSDGIQQAKVQILPECVLPSTMSAVQLESLNKCQIFPSKPVSREDQCSYKWWQKYQKRKFHCANLTSWPRWLYSLYDAETLMDRIKKQLREWDENLKDDSLPSNPIDFSYRVAACLPIDDVLRIQLLKIGSAIQRLRCELDIMNKCTSLCCKQCQETEITTKNEIFSLSLCGPMAAYVNPHGYVHETLTVYKACNLNLIGRPSTEHSWFPGYAWTVAQCKICASHIGWKFTATKKDMSPQKFWGLTRSALLPTIPDTEDEISPDKVILCL
Broadly, the Kd is the equilibrium constant for the complex coming apart. Lower therefore signals a tighter complex. In turn, B2 yielded an equilibrium dissociation constant (Kd) in assay [2] of 2810 nM.
